Source: the supplement of paper PMC9112550, “Optimization of the antimicrobial peptide Bac7 by deep mutational scanning” (BMC Biology, 2022)
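Further: peptides expressed intracellularly from a pBAD plasmid library in pooled LB shake-flask culture, induced with 0.3% L-arabinose, DNA abundance read by NGS, three biological replicates, DESeq2 with apeglm shrinkage.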

What follows are sequences tested on Escherichia coli TOP10 (assay: shrunken log2 fold change of peptide-encoding DNA abundance (4.5 h post-induction vs induction); higher = less antimicrobial activity (less host growth inhibition)). Conditions: time post-induction: 4.5 h; library: site-saturation at positions 5, 18, 19, 20.
RRIRRRPPRLPRPRPRPFSHPRP was tested, and the “shrunken log2 fold change” value was -0.0121. RRIRRRPPRLPRPRPRPFSPPRP was tested, and the “shrunken log2 fold change” value was -0.173. RRIRRRPPRLPRPRPRPFTFPRP was tested, and the “shrunken log2 fold change” value was -0.247. RRIRRRPPRLPRPRPRPFVGPRP was tested, and the “shrunken log2 fold change” value was -0.229. In the case of RRIRRRPPRLPRPRPRPFVLPRP, the “shrunken log2 fold change” value is reported as -0.0834. RRIRRRPPRLPRPRPRPFWFPRP was tested, and the “shrunken log2 fold change” value was -0.138. For RRIRRRPPRLPRPRPRPFYAPRP, the “shrunken log2 fold change” value was -0.0129. With RRIRRRPPRLPRPRPRPFYKPRP the “shrunken log2 fold change” value was -0.173. For RRIRRRPPRLPRPRPRPFYPPRP, the “shrunken log2 fold change” value was -0.189. In the case of RRIRRRPPRLPRPRPRPFYRPRP, the “shrunken log2 fold change” value is reported as -0.0117. With RRIRRRPPRLPRPRPRPGAVPRP the “shrunken log2 fold change” value was 0.431. For RRIRRRPPRLPRPRPRPGCKPRP, the “shrunken log2 fold change” value was 0.12. RRIRRRPPRLPRPRPRPGCLPRP was tested, and the “shrunken log2 fold change” value was 0.702. With RRIRRRPPRLPRPRPRPGDCPRP the “shrunken log2 fold change” value was 0.336. For RRIRRRPPRLPRPRPRPGDMPRP, the “shrunken log2 fold change” value was 0.0846. In the case of RRIRRRPPRLPRPRPRPGEIPRP, the “shrunken log2 fold change” value is reported as 0.321. RRIRRRPPRLPRPRPRPGGDPRP was tested, and the “shrunken log2 fold change” value was 0.48. RRIRRRPPRLPRPRPRPGHKPRP was tested, and the “shrunken log2 fold change” value was 0.0528. With RRIRRRPPRLPRPRPRPGKFPRP the “shrunken log2 fold change” value was 0.284. In the case of RRIRRRPPRLPRPRPRPGLSPRP, the “shrunken log2 fold change” value is reported as -0.0549. With RRIRRRPPRLPRPRPRPGMEPRP the “shrunken log2 fold change” value was 0.0306. For RRIRRRPPRLPRPRPRPGPPPRP, the “shrunken log2 fold change” value was 1.93. In the case of RRIRRRPPRLPRPRPRPGQQPRP, the “shrunken log2 fold change” value is reported as 0.119. RRIRRRPPRLPRPRPRPGRQPRP was tested, and the “shrunken log2 fold change” value was 0.541. In the case of RRIRRRPPRLPRPRPRPGSDPRP, the “shrunken log2 fold change” value is reported as 0.421. In the case of RRIRRRPPRLPRPRPRPGVHPRP, the “shrunken log2 fold change” value is reported as -0.178. In the case of RRIRRRPPRLPRPRPRPGVPPRP, the “shrunken log2 fold change” value is reported as 0.264. For RRIRRRPPRLPRPRPRPGWLPRP, the “shrunken log2 fold change” value was 0.427. RRIRRRPPRLPRPRPRPGYGPRP was tested, and the “shrunken log2 fold change” value was 0.238. RRIRRRPPRLPRPRPRPHAIPRP was tested, and the “shrunken log2 fold change” value was -0.042. With RRIRRRPPRLPRPRPRPHATPRP the “shrunken log2 fold change” value was 0.492. RRIRRRPPRLPRPRPRPHDGPRP was tested, and the “shrunken log2 fold change” value was -0.0863. For RRIRRRPPRLPRPRPRPHEHPRP, the “shrunken log2 fold change” value was -0.153. RRIRRRPPRLPRPRPRPHERPRP was tested, and the “shrunken log2 fold change” value was 0.225. With RRIRRRPPRLPRPRPRPHEWPRP the “shrunken log2 fold change” value was -0.00636. In the case of RRIRRRPPRLPRPRPRPHFAPRP, the “shrunken log2 fold change” value is reported as 0.382. In the case of RRIRRRPPRLPRPRPRPHFEPRP, the “shrunken log2 fold change” value is reported as -0.211. For RRIRRRPPRLPRPRPRPHFGPRP, the “shrunken log2 fold change” value was 0.111. For RRIRRRPPRLPRPRPRPHFPPRP, the “shrunken log2 fold change” value was 0.553. In the case of RRIRRRPPRLPRPRPRPHGCPRP, the “shrunken log2 fold change” value is reported as 0.000335. RRIRRRPPRLPRPRPRPHGNPRP was tested, and the “shrunken log2 fold change” value was 0.166. In the case of RRIRRRPPRLPRPRPRPHHMPRP, the “shrunken log2 fold change” value is reported as -0.217. RRIRRRPPRLPRPRPRPHKCPRP was tested, and the “shrunken log2 fold change” value was -0.346. With RRIRRRPPRLPRPRPRPHKYPRP the “shrunken log2 fold change” value was -0.192. In the case of RRIRRRPPRLPRPRPRPHNRPRP, the “shrunken log2 fold change” value is reported as 0.0584. RRIRRRPPRLPRPRPRPHPPPRP was tested, and the “shrunken log2 fold change” value was 0.746. In the case of RRIRRRPPRLPRPRPRPHQFPRP, the “shrunken log2 fold change” value is reported as -0.183. For RRIRRRPPRLPRPRPRPHQQPRP, the “shrunken log2 fold change” value was -0.0551. RRIRRRPPRLPRPRPRPHSQPRP was tested, and the “shrunken log2 fold change” value was 0.0866. For RRIRRRPPRLPRPRPRPHSYPRP, the “shrunken log2 fold change” value was -0.187. In the case of RRIRRRPPRLPRPRPRPHTCPRP, the “shrunken log2 fold change” value is reported as 0.0847. RRIRRRPPRLPRPRPRPHTPPRP was tested, and the “shrunken log2 fold change” value was -0.039. With RRIRRRPPRLPRPRPRPHTYPRP the “shrunken log2 fold change” value was 0.573. In the case of RRIRRRPPRLPRPRPRPHVCPRP, the “shrunken log2 fold change” value is reported as 0.0988. With RRIRRRPPRLPRPRPRPHVFPRP the “shrunken log2 fold change” value was 2.42. RRIRRRPPRLPRPRPRPHVRPRP was tested, and the “shrunken log2 fold change” value was 0.0936. RRIRRRPPRLPRPRPRPHWMPRP was tested, and the “shrunken log2 fold change” value was 0.122. In the case of RRIRRRPPRLPRPRPRPHWVPRP, the “shrunken log2 fold change” value is reported as 0.0391. For RRIRRRPPRLPRPRPRPHWWPRP, the “shrunken log2 fold change” value was 0.325. RRIRRRPPRLPRPRPRPIAEPRP was tested, and the “shrunken log2 fold change” value was 0.446. In the case of RRIRRRPPRLPRPRPRPICHPRP, the “shrunken log2 fold change” value is reported as 0.692. RRIRRRPPRLPRPRPRPICLPRP was tested, and the “shrunken log2 fold change” value was 0.12. In the case of RRIRRRPPRLPRPRPRPICYPRP, the “shrunken log2 fold change” value is reported as -0.0102. With RRIRRRPPRLPRPRPRPIFGPRP the “shrunken log2 fold change” value was 0.338. RRIRRRPPRLPRPRPRPIFKPRP was tested, and the “shrunken log2 fold change” value was 0.196. For RRIRRRPPRLPRPRPRPIGGPRP, the “shrunken log2 fold change” value was 0.205. In the case of RRIRRRPPRLPRPRPRPIGRPRP, the “shrunken log2 fold change” value is reported as 0.00106. For RRIRRRPPRLPRPRPRPIGSPRP, the “shrunken log2 fold change” value was 0.318. In the case of RRIRRRPPRLPRPRPRPIILPRP, the “shrunken log2 fold change” value is reported as -0.406. For RRIRRRPPRLPRPRPRPIKIPRP, the “shrunken log2 fold change” value was -0.0791. In the case of RRIRRRPPRLPRPRPRPILDPRP, the “shrunken log2 fold change” value is reported as 0.0526. For RRIRRRPPRLPRPRPRPILKPRP, the “shrunken log2 fold change” value was 0.333. In the case of RRIRRRPPRLPRPRPRPIMQPRP, the “shrunken log2 fold change” value is reported as -0.0408. RRIRRRPPRLPRPRPRPINKPRP was tested, and the “shrunken log2 fold change” value was -0.431. RRIRRRPPRLPRPRPRPIQFPRP was tested, and the “shrunken log2 fold change” value was 0.153. In the case of RRIRRRPPRLPRPRPRPIQSPRP, the “shrunken log2 fold change” value is reported as 0.0301. RRIRRRPPRLPRPRPRPIRYPRP was tested, and the “shrunken log2 fold change” value was 0.0578. RRIRRRPPRLPRPRPRPISCPRP was tested, and the “shrunken log2 fold change” value was 0.00341. In the case of RRIRRRPPRLPRPRPRPITAPRP, the “shrunken log2 fold change” value is reported as 0.148. RRIRRRPPRLPRPRPRPIVCPRP was tested, and the “shrunken log2 fold change” value was 0.539. With RRIRRRPPRLPRPRPRPIVEPRP the “shrunken log2 fold change” value was 0.136. For RRIRRRPPRLPRPRPRPIVQPRP, the “shrunken log2 fold change” value was -0.0768. RRIRRRPPRLPRPRPRPIVSPRP was tested, and the “shrunken log2 fold change” value was -0.221. For RRIRRRPPRLPRPRPRPIWDPRP, the “shrunken log2 fold change” value was 0.604. For RRIRRRPPRLPRPRPRPIYIPRP, the “shrunken log2 fold change” value was -0.184. RRIRRRPPRLPRPRPRPIYNPRP was tested, and the “shrunken log2 fold change” value was -0.246. For RRIRRRPPRLPRPRPRPKDAPRP, the “shrunken log2 fold change” value was 0.0371. For RRIRRRPPRLPRPRPRPKDKPRP, the “shrunken log2 fold change” value was 0.239. RRIRRRPPRLPRPRPRPKEYPRP was tested, and the “shrunken log2 fold change” value was -0.0535. For RRIRRRPPRLPRPRPRPKFIPRP, the “shrunken log2 fold change” value was -0.207. For RRIRRRPPRLPRPRPRPKHVPRP, the “shrunken log2 fold change” value was 0.19. In the case of RRIRRRPPRLPRPRPRPKITPRP, the “shrunken log2 fold change” value is reported as -0.226. For RRIRRRPPRLPRPRPRPKLVPRP, the “shrunken log2 fold change” value was 0.485. RRIRRRPPRLPRPRPRPKLYPRP was tested, and the “shrunken log2 fold change” value was 0.174. For RRIRRRPPRLPRPRPRPKMMPRP, the “shrunken log2 fold change” value was 0.296. With RRIRRRPPRLPRPRPRPKNHPRP the “shrunken log2 fold change” value was -0.0297. For RRIRRRPPRLPRPRPRPKQGPRP, the “shrunken log2 fold change” value was -0.079. With RRIRRRPPRLPRPRPRPKQWPRP the “shrunken log2 fold change” value was 0.294. In the case of RRIRRRPPRLPRPRPRPKRRPRP, the “shrunken log2 fold change” value is reported as 0.525. With RRIRRRPPRLPRPRPRPKSAPRP the “shrunken log2 fold change” value was 0.237. For RRIRRRPPRLPRPRPRPKSRPRP, the “shrunken log2 fold change” value was 0.174. In the case of RRIRRRPPRLPRPRPRPKSTPRP, the “shrunken log2 fold change” value is reported as 0.18. For RRIRRRPPRLPRPRPRPKVQPRP, the “shrunken log2 fold change” value was -0.0356. For RRIRRRPPRLPRPRPRPKWCPRP, the “shrunken log2 fold change” value was 0.431. For RRIRRRPPRLPRPRPRPKWGPRP, the “shrunken log2 fold change” value was 1.2. RRIRRRPPRLPRPRPRPKWSPRP was tested, and the “shrunken log2 fold change” value was 0.457. For RRIRRRPPRLPRPRPRPKYGPRP, the “shrunken log2 fold change” value was -0.000734. With RRIRRRPPRLPRPRPRPLALPRP the “shrunken log2 fold change” value was 0.396. For RRIRRRPPRLPRPRPRPLAVPRP, the “shrunken log2 fold change” value was 0.176.
